From article PMC5673899, “Structural basis for receptor recognition of pollen tube attraction peptides” (Nature Communications, 2017)
“Also recorded” adds a separate entry of the source.

Columns and labels:
[1] = test system: prk6 pollen tubes transformed with PRK6 N239A; test: Gelatin-beads assay, prk6 pollen tubes transformed with N239A PRK6; type: cell-based, Arabidopsis; conditions: beads with 250 nM wild-type AtLURE1.2; 10–23 pollen tubes per assay, three assays
Experimental: (§1) Attraction activities of mutant AtLURE1.2 peptides were examined for semi-in-vivo pollen tubes growing through cut, pollinated pistils by gelatin-beads assay and wavy assay, [20]. For the gelatin-beads assay, pollen tubes were grown on solid pollen germination medium poured into a mold made with 1-mm thick silicone rubber and cover glasses. After hand-pollination, the topside cover glass was removed and the medium was covered with hydrated silicone oil (KF-96–100CS; Shin-Etsu). Attraction of pollen tubes toward the peptide was evaluated using AtLURE1 peptide containing gelatine beads under an inverted microscope (IX71, Olympus) equipped with a micro-manipulator (Narishige). For the AtLURE1-responsive wavy assay, the purified AtLURE1.2 peptide was added to solid pollen germination medium, which was melted at 70 °C and then cooled to a certain degree. The mixture was mixed by vortexing and poured into the mold. Pollen tubes of each genotype were grown through cut styles, as mentioned above. Each peptide (25 μM in 10 mM Bis-Tris (pH 6.0) and 100 mM NaCl) was diluted to 250 nM by cultivation medium in both assays. To examine reactivity of PRK6 mutants to AtLURE1.2, constructs for PRK6 mutants, D234A, N239A, and ΔN239I240, were generated by site-directed mutagenesis from a wild-type PRK6 vector, pPZP221-pPRK6::PRK6-mRuby2 (ref. [20]). […]

AtPRK6^LRR D234A = test: In vitro pull-down with AtPRK6^LRR mutant D234A; type: binding, Arabidopsis thaliana; conditions: wild-type AtLURE1.2
Excerpt: (§2) The genes of AtPRK3 ^LRR (residues 1–241), AtPRK4 ^LRR (residues 1–277), AtPRK5 ^LRR (residues 1–279), AtPRK6 ^LRR (residues 1–262), MIK1 ^LRR (residues 1–633), MIK2 ^LRR (residues 1–707) were amplified from Arabidopsis cDNA library by PCR and cloned into pFastBac-1 vector with a C-terminal 6 × His-tag. Their identities were confirmed by sequencing. The mature form of AtLURE1.1 (residues 20–94), AtLURE1.2 (residues 20–90), AtLURE1.3 (residues 21–91), and AtLURE1.4 (residues 20–90) were cloned into pFastBac-1 vector, with a modified N-terminal hemolin signal peptide and 6 × His-SUMO tag. Point mutation constructs were generated by QuickChange Site-Directed Mutagenesis Kit (Strategene). All the proteins were expressed using the Bac-to-Bac baculovirus expression system (Invitrogen) in High Five cells at 22 °C. One liter of High Five cells (2.0 × 10^6 cells mL^−1) cultured in the medium from Expression Systems was infected with 25 ml recombinant baculovirus and the media was collected after 72 h of infection. Secreted LRR proteins were purified using Ni-NTA (Novagen) and size-exclusion chromatography (Hiload 200, GE Healthcare) in buffer containing 10 mM Bis-Tris pH 6.0 and 100 mM NaCl. […]
(§3) The purified His-tagged ectodomains of AtPRK proteins and MIK1, 2 were used to pull-down the AtLURE1.2 peptide. […] All the eluted samples were analyzed by SDS-PAGE and visualized by Coomassie blue staining. […]

[2] = test system: AtPRK^LRR proteins other than AtPRK6^LRR; test: In vitro pull-down with other AtPRK^LRR proteins; type: binding, Arabidopsis; conditions: Ni-NTA, excess AtLURE1.2, on ice 30 min, washed five times; SDS-PAGE, Coomassie blue
Excerpt: as §2, §3

[3] = test system: semi-in-vivo pollen tubes (wild type); test: AtLURE-responsive wavy assay, wild-type pollen tubes; type: cell-based, Arabidopsis; conditions: 250 nM peptide in solid pollen germination medium
Experimental: as §1, with “assays.” for “assays. To examine reactivity of PRK6 mutants to AtLURE1.2, constructs for PRK6 mutants, D234A, N239A, and ΔN239I240, were generated by site-directed mutagenesis from a wild-type PRK6 vector, pPZP221-pPRK6::PRK6-mRuby2 (ref. [20]).”
(§4) pollen tubes. Fluorescence is from mRuby2 fused to the C-terminal of PRK6 receptors, showing that all of mutant PRK6 receptors localize normally to the plasma membrane of the pollen tube tip. […]

[4] = test system: prk6 pollen tubes transformed with PRK6 N239A; test: Wavy assay, prk6 pollen tubes transformed with N239A PRK6; type: cell-based, Arabidopsis; conditions: 250 nM wild-type AtLURE1.2 in medium
Experimental: as §1, with “assays.” for “assays. To examine reactivity of PRK6 mutants to AtLURE1.2, constructs for PRK6 mutants, D234A, N239A, and ΔN239I240, were generated by site-directed mutagenesis from a wild-type PRK6 vector, pPZP221-pPRK6::PRK6-mRuby2 (ref. [20]).”
as §4

[5] = test system: prk6 pollen tubes transformed with PRK6 ΔN239I240; test: Gelatin-beads assay, prk6 pollen tubes transformed with ΔN239I240 PRK6; type: cell-based, Arabidopsis; conditions: beads with 250 nM wild-type AtLURE1.2; 10–23 pollen tubes per assay, three assays
Experimental: as §1

[6] = test system: AtPRK6^LRR with mutations of other AtLURE1.2-interacting residues; test: In vitro pull-down with other AtPRK6^LRR mutants; type: binding, Arabidopsis thaliana; conditions: mutations of other AtLURE1.2-interacting residues of AtPRK6^LRR
Excerpt: as §2, §3

[7] = test system: semi-in-vivo pollen tubes; test: Gelatin-beads assay, wild-type semi-in-vivo pollen tubes; type: cell-based, Arabidopsis; conditions: gelatin beads containing 250 nM peptide
Experimental: Attraction activities of mutant AtLURE1.2 peptides were examined for semi-in-vivo pollen tubes growing through cut, pollinated pistils by gelatin-beads assay and wavy assay, [20]. For the gelatin-beads assay, pollen tubes were grown on solid pollen germination medium poured into a mold made with 1-mm thick silicone rubber and cover glasses. After hand-pollination, the topside cover glass was removed and the medium was covered with hydrated silicone oil (KF-96–100CS; Shin-Etsu). Attraction of pollen tubes toward the peptide was evaluated using AtLURE1 peptide containing gelatine beads under an inverted microscope (IX71, Olympus) equipped with a micro-manipulator (Narishige). For the AtLURE1-responsive wavy assay, the purified AtLURE1.2 peptide was added to solid pollen germination medium, which was melted at 70 °C and then cooled to a certain degree. The mixture was mixed by vortexing and poured into the mold. Pollen tubes of each genotype were grown through cut styles, as mentioned above. Each peptide (25 μM in 10 mM Bis-Tris (pH 6.0) and 100 mM NaCl) was diluted to 250 nM by cultivation medium in both assays. To examine reactivity of PRK6 mutants to AtLURE1.2, constructs for PRK6 mutants, D234A, N239A, and ΔN239I240, were generated by site-directed mutagenesis from a wild-type PRK6 vector, pPZP221-pPRK6::PRK6-mRuby2 (ref. [20]). Wild-type and mutant PRK6 constructs were introduced into prk6–1 plant. After transformants were selected by the same criteria as previously, beads assay and wavy assay were performed in several T1 lines and single T2 line, respectively, for each genotype using 250 nM wild-type AtLURE1.2 peptide.

B1: AtLURE1.2: mature form of AtLURE1.2 (residues 20–90), defensin-like cysteine-rich peptide expressed in insect cells (protein)
chain: TLINGSSDEERTYSFSPTTSPFDPRSLNQELKIGRIGYCFDCARACMRRGKYIRTCSFERKLCRCSISDIK
modifications: left off: His6, N-terminal, cleaved | SUMO, N-terminal, cleaved
notes: mature form of AtLURE1.2 (residues 20–90), defensin-like cysteine-rich peptide expressed in insect cells
[1]
  pollen tube attraction / reactivity: comparable reactivity to the wild-type PRK6
AtPRK6^LRR D234A
  interaction in pull-down assay: greatly compromised; also recorded: significantly compromised
[2]
  interaction in pull-down assay: none of the other LRR proteins was found to interact
[3]
  wavy pollen tube response: caused pollen tube wavy response
[4]
  wavy and branched pollen tube behavior: severe wavy and branched behavior; also recorded: comparable reactivity to the wild-type PRK6
[5]
  pollen tube attraction: significantly lower than those in wild-type and N239A PRK6 pollen tubes; also recorded: significantly reduced
[6]
  interaction in pull-down assay: much less striking effects
[7]; Tukey−Kramer test, P < 0.05
  pollen tube attraction activity (in words): efficiently attracted pollen tubes
[7]; mean ± SD, 9–16 pollen tubes per assay, 3−5 assays
  attraction frequency of pollen tubes: 94 ± 7%
